Experimental data: patent US20160272689A1

Molecular target: Fc-tagged extracellular domain of mouse RPTPσ (wild type) (mouse) (UniProt B0V2N1)
Assay: ELISA: Fc-tagged RPTPσ (2 µg/ml) on protein G plates; biotinylated aggrecan 5 µg/ml preincubated with protamine 0-5 µg/ml; streptavidin-HRP, A450

Chain of biotinylated bovine aggrecan, P13608 17-2364 (ligand; biotinylated (sites not stated); natural chondroitin sulphate side chains of the proteoglycan) (P13608 17-2364 limits assumed): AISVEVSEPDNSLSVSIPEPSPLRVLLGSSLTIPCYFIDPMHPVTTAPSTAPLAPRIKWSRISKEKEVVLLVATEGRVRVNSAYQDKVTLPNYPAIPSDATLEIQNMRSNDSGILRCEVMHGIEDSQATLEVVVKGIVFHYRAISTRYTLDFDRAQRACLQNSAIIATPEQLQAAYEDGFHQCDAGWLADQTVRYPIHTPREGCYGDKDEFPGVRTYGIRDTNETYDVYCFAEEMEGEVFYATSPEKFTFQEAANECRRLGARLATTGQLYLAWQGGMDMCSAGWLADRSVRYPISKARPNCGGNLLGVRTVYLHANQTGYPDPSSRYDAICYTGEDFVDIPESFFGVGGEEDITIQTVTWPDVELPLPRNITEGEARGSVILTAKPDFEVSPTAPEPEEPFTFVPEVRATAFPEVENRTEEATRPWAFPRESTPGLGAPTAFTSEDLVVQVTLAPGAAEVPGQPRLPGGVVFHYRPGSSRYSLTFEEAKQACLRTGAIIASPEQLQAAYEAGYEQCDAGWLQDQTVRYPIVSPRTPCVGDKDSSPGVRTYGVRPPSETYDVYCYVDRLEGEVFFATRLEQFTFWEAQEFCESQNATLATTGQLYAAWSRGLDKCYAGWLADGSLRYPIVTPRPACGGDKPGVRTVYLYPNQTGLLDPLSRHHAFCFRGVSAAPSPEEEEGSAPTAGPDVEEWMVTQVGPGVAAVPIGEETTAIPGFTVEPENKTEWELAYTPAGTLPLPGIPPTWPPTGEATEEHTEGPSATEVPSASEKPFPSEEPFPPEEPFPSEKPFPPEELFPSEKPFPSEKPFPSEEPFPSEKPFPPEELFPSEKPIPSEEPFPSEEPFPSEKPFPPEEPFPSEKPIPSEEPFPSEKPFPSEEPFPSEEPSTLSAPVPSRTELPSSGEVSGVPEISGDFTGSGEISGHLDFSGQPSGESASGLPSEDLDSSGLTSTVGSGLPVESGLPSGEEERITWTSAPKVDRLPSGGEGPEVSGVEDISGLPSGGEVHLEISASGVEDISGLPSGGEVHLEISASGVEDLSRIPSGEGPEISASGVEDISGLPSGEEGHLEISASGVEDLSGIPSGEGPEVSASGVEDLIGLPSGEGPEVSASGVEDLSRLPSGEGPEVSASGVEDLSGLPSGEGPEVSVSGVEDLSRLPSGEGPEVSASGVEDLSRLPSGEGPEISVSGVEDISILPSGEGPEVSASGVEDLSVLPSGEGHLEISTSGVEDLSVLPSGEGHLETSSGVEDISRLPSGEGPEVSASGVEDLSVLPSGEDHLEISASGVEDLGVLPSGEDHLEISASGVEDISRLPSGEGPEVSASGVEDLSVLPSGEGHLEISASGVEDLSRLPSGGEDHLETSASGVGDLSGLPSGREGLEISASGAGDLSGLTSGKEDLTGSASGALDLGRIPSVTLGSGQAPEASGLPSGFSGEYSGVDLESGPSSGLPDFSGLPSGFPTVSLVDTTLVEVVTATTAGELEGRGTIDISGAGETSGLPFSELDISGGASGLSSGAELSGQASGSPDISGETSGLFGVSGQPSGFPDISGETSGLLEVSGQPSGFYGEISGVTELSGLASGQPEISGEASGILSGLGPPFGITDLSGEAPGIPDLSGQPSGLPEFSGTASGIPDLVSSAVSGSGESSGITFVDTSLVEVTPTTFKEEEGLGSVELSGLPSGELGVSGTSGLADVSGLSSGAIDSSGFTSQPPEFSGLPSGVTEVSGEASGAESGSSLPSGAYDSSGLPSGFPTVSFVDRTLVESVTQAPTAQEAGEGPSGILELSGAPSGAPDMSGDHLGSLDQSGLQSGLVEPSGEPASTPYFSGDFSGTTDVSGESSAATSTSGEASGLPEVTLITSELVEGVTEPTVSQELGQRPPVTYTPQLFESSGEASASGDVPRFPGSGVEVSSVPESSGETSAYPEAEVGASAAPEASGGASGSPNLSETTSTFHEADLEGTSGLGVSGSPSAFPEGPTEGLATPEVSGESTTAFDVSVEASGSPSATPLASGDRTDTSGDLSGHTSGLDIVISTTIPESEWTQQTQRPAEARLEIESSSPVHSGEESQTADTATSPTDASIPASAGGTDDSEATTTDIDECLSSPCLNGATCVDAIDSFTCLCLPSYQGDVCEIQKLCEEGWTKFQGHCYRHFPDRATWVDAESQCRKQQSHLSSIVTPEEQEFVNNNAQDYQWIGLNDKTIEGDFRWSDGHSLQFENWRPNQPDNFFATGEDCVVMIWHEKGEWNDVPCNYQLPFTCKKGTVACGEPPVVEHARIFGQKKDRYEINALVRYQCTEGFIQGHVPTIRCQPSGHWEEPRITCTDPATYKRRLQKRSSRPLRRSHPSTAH
Chain of Fc-tagged extracellular domain of mouse RPTPσ (wild type) (mouse) (B0V2N1 30-1257): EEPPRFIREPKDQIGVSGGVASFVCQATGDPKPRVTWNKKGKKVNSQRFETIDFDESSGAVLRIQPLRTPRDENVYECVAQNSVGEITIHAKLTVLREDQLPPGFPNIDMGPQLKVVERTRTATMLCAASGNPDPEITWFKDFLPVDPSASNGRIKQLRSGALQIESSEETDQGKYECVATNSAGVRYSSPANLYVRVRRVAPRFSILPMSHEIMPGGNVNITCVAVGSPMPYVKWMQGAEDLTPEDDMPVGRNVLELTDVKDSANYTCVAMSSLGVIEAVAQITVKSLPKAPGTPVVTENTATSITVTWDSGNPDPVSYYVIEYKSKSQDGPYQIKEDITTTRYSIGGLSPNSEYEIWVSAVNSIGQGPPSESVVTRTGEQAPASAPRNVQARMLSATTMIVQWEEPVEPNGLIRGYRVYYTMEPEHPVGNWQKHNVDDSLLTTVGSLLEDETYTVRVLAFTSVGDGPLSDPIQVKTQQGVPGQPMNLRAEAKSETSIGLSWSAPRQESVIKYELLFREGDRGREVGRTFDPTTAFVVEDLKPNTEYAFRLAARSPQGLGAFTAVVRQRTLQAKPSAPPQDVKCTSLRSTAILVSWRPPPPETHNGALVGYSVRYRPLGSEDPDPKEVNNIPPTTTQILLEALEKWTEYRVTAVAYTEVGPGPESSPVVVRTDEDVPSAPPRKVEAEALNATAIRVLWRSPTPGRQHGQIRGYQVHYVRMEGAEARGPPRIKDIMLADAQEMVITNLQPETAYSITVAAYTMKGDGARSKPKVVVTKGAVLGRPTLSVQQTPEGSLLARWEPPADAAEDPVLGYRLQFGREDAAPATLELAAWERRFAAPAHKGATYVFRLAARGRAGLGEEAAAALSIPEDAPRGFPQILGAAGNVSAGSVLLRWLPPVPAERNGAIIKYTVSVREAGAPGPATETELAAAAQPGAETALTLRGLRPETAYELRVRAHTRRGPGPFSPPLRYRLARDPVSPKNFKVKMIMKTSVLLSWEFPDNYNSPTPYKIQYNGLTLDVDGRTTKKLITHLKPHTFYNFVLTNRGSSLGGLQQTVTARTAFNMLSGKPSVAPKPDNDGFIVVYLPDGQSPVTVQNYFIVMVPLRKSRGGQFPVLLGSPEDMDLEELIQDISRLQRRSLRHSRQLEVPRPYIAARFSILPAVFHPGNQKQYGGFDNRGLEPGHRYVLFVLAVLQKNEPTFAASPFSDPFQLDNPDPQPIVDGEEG

fold increase of binding in the presence of protamine: 2 fold
Substance: biotinylated bovine aggrecan, P13608 17-2364 (ligand; biotinylated (sites not stated); natural chondroitin sulphate side chains of the proteoglycan)
